Measured values published in patent US20210238260A1 (published 2021).
Substitutions are numbered along the chain they refer to. In names and notes the source's numbering stands.

Experiments:
[1] = target: T1, Factor VIIIa (recombinant FVIII, Kogenate FS, activated with alpha-thrombin) (UniProt P00451 20-2351); assay: same assay; ratio of KD-app of Catalyst Biosciences WT FIXa to KD-app of this FIXa
T1 construct: also called FVIIIa; cofactor
T1 sequence (looked up): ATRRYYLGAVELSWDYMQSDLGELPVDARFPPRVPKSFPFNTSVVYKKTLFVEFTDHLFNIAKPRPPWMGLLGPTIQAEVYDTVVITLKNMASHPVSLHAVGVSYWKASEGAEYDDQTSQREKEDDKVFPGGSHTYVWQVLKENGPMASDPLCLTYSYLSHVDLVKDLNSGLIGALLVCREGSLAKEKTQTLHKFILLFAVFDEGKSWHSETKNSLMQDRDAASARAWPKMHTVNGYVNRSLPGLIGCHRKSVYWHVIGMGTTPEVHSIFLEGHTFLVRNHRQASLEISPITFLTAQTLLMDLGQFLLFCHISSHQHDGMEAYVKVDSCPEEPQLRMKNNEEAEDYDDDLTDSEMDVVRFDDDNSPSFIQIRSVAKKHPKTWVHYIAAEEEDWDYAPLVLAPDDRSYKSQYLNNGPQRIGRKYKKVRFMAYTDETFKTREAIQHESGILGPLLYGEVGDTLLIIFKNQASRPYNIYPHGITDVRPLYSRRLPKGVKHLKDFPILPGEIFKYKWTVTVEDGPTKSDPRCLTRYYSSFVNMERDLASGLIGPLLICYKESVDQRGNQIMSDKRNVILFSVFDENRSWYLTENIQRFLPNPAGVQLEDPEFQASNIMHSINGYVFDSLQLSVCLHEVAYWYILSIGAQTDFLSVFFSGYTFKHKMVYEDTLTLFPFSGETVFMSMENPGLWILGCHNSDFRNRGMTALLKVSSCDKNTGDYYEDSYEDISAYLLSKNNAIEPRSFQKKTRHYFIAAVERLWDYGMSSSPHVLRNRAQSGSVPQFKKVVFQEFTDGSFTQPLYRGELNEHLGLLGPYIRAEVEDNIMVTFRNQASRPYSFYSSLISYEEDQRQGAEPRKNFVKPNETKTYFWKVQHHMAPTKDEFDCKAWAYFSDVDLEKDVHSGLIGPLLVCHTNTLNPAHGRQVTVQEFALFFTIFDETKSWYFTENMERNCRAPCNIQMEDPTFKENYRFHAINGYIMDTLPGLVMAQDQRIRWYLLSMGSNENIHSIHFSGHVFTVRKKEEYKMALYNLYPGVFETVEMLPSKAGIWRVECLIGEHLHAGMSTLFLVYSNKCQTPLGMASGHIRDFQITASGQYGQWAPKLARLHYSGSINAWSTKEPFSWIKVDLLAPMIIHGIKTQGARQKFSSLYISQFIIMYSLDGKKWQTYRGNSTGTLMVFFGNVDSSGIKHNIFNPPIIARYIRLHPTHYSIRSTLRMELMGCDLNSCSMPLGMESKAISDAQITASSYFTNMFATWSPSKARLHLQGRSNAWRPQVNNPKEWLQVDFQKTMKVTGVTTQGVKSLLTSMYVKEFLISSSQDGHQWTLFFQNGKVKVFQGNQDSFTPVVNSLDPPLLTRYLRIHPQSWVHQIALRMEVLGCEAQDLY

[2] = target: T1, Factor VIIIa (recombinant FVIII, …); assay: apparent functional KD (KD-app): FXa generation by FIXa with FVIIIa titrated, PC/PS vesicles, saturating FX, fluorogenic Spectrafluor FXa
[3] = target: T2, Factor VIIIa (recombinant FVIII, Kogenate FS, activated with alpha-thrombin) (UniProt P00451 20-2351); assay: functional cofactor affinity KD-app: fluorogenic FX activation (Xase) assay, FVIIIa titrated, PC/PS vesicles, saturating FX
T2 construct: also called FVIIIa
T2 sequence (looked up): T1 sequence (looked up)

[4] = target: T2, Factor VIIIa (recombinant FVIII, …); assay: ratio of KD-app of wild-type FIXa (Catalyst Biosciences WT, SEQ ID NO:3) to that of the variant, same Xase assay
[5] = target: T3, antithrombin III (plasma purified human AT-III), used as the AT-III/unfractionated heparin complex (human, UniProt P01008 33-464); assay: K0.5: AT-III/UFH titrated against FIXa, 10 s, residual cleavage of Mesyl-D-CHG-Gly-Arg-AMC
T3 construct: also called AT-III/UFH

[6] = target: T4, plasma purified human AT-III (antithrombin III) (human, UniProt P01008 33-464); assay: K0.5: AT-III/UFH titrated on FIXa, residual activity on fluorogenic substrate
T4 construct: also called AT-III/UFH (in complex with unfractionated heparin)

B1: FIXa-D104N/K106S/R318Y/R338E/E410N (enzyme)
chain 1: YNSGKLEEFVQGNLERECMEEKCSFEEAREVFENTERTTEFWKQYVDGDQCESNPCLNGGSCKDDINSYECWCPFGFEGKNCELDVTCNIKNGRCEQFCKNSANNSVVCSCTEGYRLAENQKSCEPAVPFPCGRVSVSQTSKLTR
chain 2: VVGGEDAKPGQFPWQVVLNGKVDAFCGGSIVNEKWIVTAAHCVETGVKITVVAGEHNIEETEHTEQKRNVIRIIPHHNYNAAINKYNHDIALLELDEPLVLNSYVTPICIADKEYTNIFLKFGSGYVSGWGRVFHKGYSALVLQYLRVPLVDRATCLESTKFTIYNNMFCAGFHEGGRDSCQGDSGGPHVTEVEGTSFLTGIISWGEECAMKGKYGIYTKVSRYVNWIKNKTKLT
Work on B1 yielded a KD-WT/KD-mut [1] of 7.7 and a Kd [2] of 12.4 nM.

B2: FIXa-Y155F/K247N/N249S/R338E/T343R (enzyme)
chain 1: B1 chain 1 with N104D, S106K
chain 2: B1 chain 2 with K67N, N69S, Y138R, T163R, N230E
In the case of B2, the Kd [3] is reported as 15.4 nM and the KD-WT/KD-mut [4] is reported as 6.2.

B3: FIXa-R318Y/R338E/T343R/R403E/E410S (enzyme)
chain 1: B1 chain 1 with N104D, S106K
chain 2: B1 chain 2 with T163R, R223E, N230S
notes: also called R150Y/R170E/T175R/R233E/E240S (chymotrypsin numbering)
In the case of B3, the Kd [3] is reported as 23.2 nM and the KD-WT/KD-mut [4] is reported as 4.1.

B4: FIXa-D203N/F205T/R338E (enzyme)
chain 1: B1 chain 1 with N104D, S106K
chain 2: B1 chain 2 with D23N, F25T, Y138R, N230E
notes: also called D39N/F41T/R170E (chymotrypsin numbering)
B4 was tested, and the IC50 [5] was 1170 nM.

B5: FIXa-Y155F/R318Y/T343R/E410N (enzyme)
chain 1: B1 chain 1 with N104D, S106K
chain 2: B1 chain 2 with E158R, T163R
B5 was tested, and the Kd [3] was 38 nM and the KD-WT/KD-mut [4] was 2.5.

B6: FIXa-R318Y/T343R/R403E/E410N (enzyme)
chain 1: B1 chain 1 with N104D, S106K
chain 2: B1 chain 2 with E158R, T163R, R223E
notes: also called R150Y/T175R/R233E/E240N (chymotrypsin numbering)
Work on B6 yielded a Kd [3] of 84.1 nM and a KD-WT/KD-mut [4] of 1.1.

B7: FIXa-K228N/R318Y/R338E/T343R/R403E/E410N (enzyme)
chain 1: B1 chain 1 with N104D, S106K
chain 2: B1 chain 2 with K48N, T163R, R223E
notes: also called K63N/R150Y/R170E/T175R/R233E/E240N (chymotrypsin numbering)
In the case of B7, the Kd [3] is reported as 17.5 nM and the KD-WT/KD-mut [4] is reported as 5.4.

B8: FIXa-D203N/F205T/E410N (enzyme)
chain 1: B1 chain 1 with N104D, S106K
chain 2: B1 chain 2 with D23N, F25T, Y138R, E158R
notes: also called D39N/F41T/E240N (chymotrypsin numbering)
Binder B8 has an IC50 [5] of 377 nM.

B9: FIXa-K228N/K247N/N249S/R318Y/R338E/T343R/E410N (enzyme)
chain 1: B1 chain 1 with N104D, S106K
chain 2: B1 chain 2 with K48N, K67N, N69S, T163R
notes: also called K63N/K82N/N84S/R150Y/R170E/T175R/E240N (chymotrypsin numbering)
B9 gave a Kd [3] of 7.8 nM and a KD-WT/KD-mut [4] of 12.2.

B10: FIXa-D104N/K106S/R318Y/R338E/E410N (enzyme)
chain 1: B1 chain 1
chain 2: B1 chain 2
notes: also called D104N/K106S/R318Y/E410N/R338E
In the case of B10, the IC50 [5] is reported as 6330 nM.

B11: FIXa-R338E/R403E/E410N (enzyme)
chain 1: B1 chain 1 with N104D, S106K
chain 2: B1 chain 2 with Y138R, R223E
notes: also called R170E/R233E/E240N (chymotrypsin numbering)
Work on B11 yielded an IC50 [5] of 2350 nM.

B12: FIXa-K228N/R338E/R403E (enzyme)
chain 1: B1 chain 1 with N104D, S106K
chain 2: B1 chain 2 with K48N, Y138R, R223E, N230E
notes: also called K63N/R170E/R233E (chymotrypsin numbering)
Work on B12 yielded an IC50 [5] of 1680 nM.

B13: FIXa-R318Y/R338E/E410N (enzyme)
chain 1: B1 chain 1 with N104D, S106K
chain 2: B1 chain 2
notes: also called R150Y/R170E/E240N
For B13, the KD-WT/KD-mut [1] was 12.4 and the Kd [2] was 7.7 nM.

B14: FIXa-D203N/F205T/R318Y (enzyme)
chain 1: B1 chain 1 with N104D, S106K
chain 2: B1 chain 2 with D23N, F25T, E158R, N230E
notes: also called D39N/F41T/R150Y (chymotrypsin numbering)
Binder B14 has an IC50 [5] of 7230 nM.

B15: FIXa-R318Y/R338E/T412A (enzyme)
chain 1: B1 chain 1 with N104D, S106K
chain 2: B1 chain 2 with N230E, T232A
notes: also called R150Y/R170E/T242A
B15 was tested, and the IC50 [6] was 7660 nM.

B16: FIXa-D203N/F205T/R338A (enzyme)
chain 1: B1 chain 1 with N104D, S106K
chain 2: B1 chain 2 with D23N, F25T, Y138R, E158A, N230E
notes: also called D39N/F41T/R170A (chymotrypsin numbering)
B16 was tested, and the IC50 [5] was 423 nM.

B17: FIXa-R318Y/R338E/E410S (enzyme)
chain 1: B1 chain 1 with N104D, S106K
chain 2: B1 chain 2 with N230S
notes: also called R150Y/R170E/E240S
With B17 the IC50 [6] was 5400 nM.

B18: FIXa-R318Y/R338E/E410N/T412V (enzyme)
chain 1: B1 chain 1 with N104D, S106K
chain 2: B1 chain 2 with T232V
notes: also called R150Y/R170E/E240N/T242V
B18 showed an IC50 [6] of 4870 nM.

B19: FIXa-Y259F/K265T/Y345T (enzyme)
chain 1: B1 chain 1 with N104D, S106K
chain 2: B1 chain 2 with Y79F, K85T, Y138R, E158R, Y165T, N230E
notes: also called Y94F/K98T/Y177T
Work on B19 yielded an IC50 [6] of 6 nM.

B20: FIXa-D203N/F205T/K228N (enzyme)
chain 1: B1 chain 1 with N104D, S106K
chain 2: B1 chain 2 with D23N, F25T, K48N, Y138R, E158R, N230E
notes: also called D39N/F41T/K63N (chymotrypsin numbering)
B20 showed an IC50 [5] of 822 nM.

B21: FIXa-D104N/K106S/Y155F/R318Y/R338E/R403E/E410N (enzyme)
chain 1: B1 chain 1
chain 2: B1 chain 2 with R223E
Work on B21 yielded a KD-WT/KD-mut [1] of 1.6 and a Kd [2] of 61.6 nM.

B22: FIXa-D203N/F205T/R338E/R403E (enzyme)
chain 1: B1 chain 1 with N104D, S106K
chain 2: B1 chain 2 with D23N, F25T, Y138R, R223E, N230E
notes: also called D39N/F41T/R170E/R233E (chymotrypsin numbering)
Binder B22 has an IC50 [5] of 1520 nM.

B23: FIXa-Y155F/K247N/N249S/R338E/E410N (enzyme)
chain 1: B1 chain 1 with N104D, S106K
chain 2: B1 chain 2 with K67N, N69S, Y138R
Binder B23 has a Kd [3] of 24.9 nM and a KD-WT/KD-mut [4] of 3.8.

B24: FIXa-Y155F/K247N/N249S/R318Y/R338E/T343R/R403E/E410N (enzyme)
chain 1: B1 chain 1 with N104D, S106K
chain 2: B1 chain 2 with K67N, N69S, T163R, R223E
Binder B24 has a Kd [3] of 15.3 nM and a KD-WT/KD-mut [4] of 6.3.

B25: FIXa-Y155F/K247N/N249S/R318Y/R338E/E410N (enzyme)
chain 1: B1 chain 1 with N104D, S106K
chain 2: B1 chain 2 with K67N, N69S
With B25 the IC50 [6] was 3880 nM.

B26: FIXa-K247N/N249S/R338E/T343R/E410N (enzyme)
chain 1: B1 chain 1 with N104D, S106K
chain 2: B1 chain 2 with K67N, N69S, Y138R, T163R
notes: also called K82N/N84S/R170E/T175R/E240N (chymotrypsin numbering)
For B26, the Kd [3] was 14 nM and the KD-WT/KD-mut [4] was 6.8.

B27: FIXa-Y155F/K247N/N249S/R318Y/R338E/T343R/E410N (enzyme)
chain 1: B1 chain 1 with N104D, S106K
chain 2: B1 chain 2 with K67N, N69S, T163R
B27 gave a Kd [3] of 13.9 nM and a KD-WT/KD-mut [4] of 6.9.

B28: FIXa-R318Y/R403E/E410N (enzyme)
chain 1: B1 chain 1 with N104D, S106K
chain 2: B1 chain 2 with E158R, R223E
notes: also called R150Y/R233E/E240N (chymotrypsin numbering)
B28 showed an IC50 [5] of 7070 nM.

B29: FIXa-Y155F/N260S/R318Y/R338E/R403E/E410N (enzyme)
chain 1: B1 chain 1 with N104D, S106K
chain 2: B1 chain 2 with N80S, R223E
For B29, the IC50 [6] was 9700 nM.

B30: FIXa-K228N/R318Y/E410N (enzyme)
chain 1: B1 chain 1 with N104D, S106K
chain 2: B1 chain 2 with K48N, E158R
notes: also called K63N/R150Y/E240N (chymotrypsin numbering)
For B30, the IC50 [5] was 475 nM.
